Where “and” joins values, the source holds several entries; their conditions need not be identical. Equal entries are not always repeated. Non-standard residues stand in square brackets, D forms with d. *: point of attachment. Biotin = O=C1N[C@H]2[C@H](CS[C@H]2CCCCC(=O)*)N1; pT = C[C@@H](OP(=O)(O)O)[C@H](N)C(=O)O; pS = N[C@@H](COP(=O)(O)O)C(=O)O; dPEG4 = PEG4 moiety

Test [1] has as its target T1, Peptide-2 (human, phosphothreonine 212, phosphothreonine 217 (tau 2N4R numbering); short chain biotin (SCBiot) and dPEG4 at the N-terminus; amide at the C-terminus).
T1 construct: also called pT212/pT217-tau peptide (Peptide-2)
In words: SPR ProteOn, peptide captured, Fab as analyte; range of n=2; Peptide-2 (pT212/pT217); Table 12 run; lower end of n=2 range. On the procedure:
(§1) A subset of HFA-PT3 monoclonal antibody variants, selected based on biophysical characterization and ELISA binding to PHF, were analyzed by Surface Plasmon Resonance (SPR) with a ProteOn XPR36 for binding to the following phosphopeptides: pT212/pT217-tau peptide (Peptide-2, SEQ ID NO: 48) and pT212-tau peptide (Peptide-8, SEQ ID NO: 54). All experiments were performed at 25° C. using PBST, pH 7.4, (Bio-Rad Cat#176-2720) as both running buffer and sample dilution buffer.
(§2) Fab/peptide binding. Biotinylated peptide was captured on a neutravidin-coated NLC biosensor chip pre-conditioned with PBST, and Fab was flowed over the surface to measure kinetic parameters. Approximately 5-10 RU of peptide was captured on the chip surface by diluting peptide to 10 ng/mL in PBST and injecting over the flow channels at 30 μL/min for 100 s. Serial dilutions of PT3 Fab (1.1 nM to 90 nM) were injected at 60 μL/min for 3 minutes (association phase), followed by 300 s of buffer only (dissociation phase).
(§3) Data were double referenced by subtraction of the interspot response, and the curves generated by the buffer only injection. The chip surface was regenerated with 0.85% phosphoric acid, followed by PBST injection before the next antibody titration injection. Data processing and analysis were performed using instrument software. The data were fit using a simple Langmuir 1:1 binding model.

Test [2] concerns the target T1, Peptide-2. In words: SPR ProteOn, peptide captured, Fab as analyte; range of n=2. The method, then: as §1, §2, §3
The target in test [3] is T2, Peptide-5 (human, phosphoserine 210, phosphoserine 214, phosphothreonine 217 (tau 2N4R numbering); SCBiot and dPEG4 at the N-terminus; amide at the C-terminus). The description is as above. On the procedure:
(§4) The binding affinity of PT3 Fab towards each of the fourteen tau phosphopeptides shown in Table 6 was assessed by surface plasmon resonance (SPR) using a Bio-Rad ProteOn XPR36. Peptides were synthesized by standard chemical methods (New England Peptide) with short-chain biotin and a PEG4 moiety at the N-terminus. Biotinylated peptide was captured on a neutravidin-coated NLC biosensor chip and PT3 Fab was flowed over the surface to measure kinetic parameters.
(§5) All experiments were performed at 25° C. using phosphate buffered saline, pH 7.4, 0.005% Tween 20 (PBST) as both running buffer and sample dilution buffer. Prior to running samples, the NLC chip was conditioned by running PBST over the chip surface for 1 h. Approximately 5-10 RU of peptide was captured on the chip surface by diluting peptide to 10 ng/mL in PBST and injecting over the flow channels at 30 μL/min for 100 s. Serial dilutions of PT3 Fab (1.1-90 nM) were analyzed and, with the exception of Peptide-8, each concentration was measured in duplicate. After capture of peptides, the antibody titration was injected at 60 μL/min for 3 minutes (association phase), followed by 300 s of buffer only (dissociation phase).
(§6) The data were double referenced by subtraction of the interspot response and the curves generated by the buffer-only injection. The chip surface was regenerated using a single injection of 0.85% phosphoric acid at 30 μL/min for 100 s contact time, followed by four injections of running buffer before the next antibody titration injection. The data processing and kinetic analysis were done using the instrument software. The data were analyzed using a simple Langmuir 1:1 binding model.

Test [4] addresses Peptide-4 (human, phosphoserine 210, phosphothreonine 217 (tau 2N4R numbering); SCBiot and dPEG4 at the N-terminus; amide at the C-terminus). The test is described as above. On the procedure: as §4, §5, §6
Test [5] addresses T3, Peptide-1 (human, phosphothreonine 212, phosphoserine 214, phosphothreonine 217 (tau 2N4R numbering); short chain biotin (SCBiot) and dPEG4 at the N-terminus; amide at the C-terminus).
T3 construct: also called tau peptide phosphorylated at T212/S214/T217
The description is as above. The method, then:
as §4, §5, §6

The target in test [6] is T1, Peptide-2. Described as above. The method, then: as §4, §5, §6
This is another data set of the same source.

The target of test [7] is T2, Peptide-5. In words: SPR ProteOn, peptide captured, Fab as analyte. The method, then: as §4, §5, §6
The target in test [8] is Peptide-3 (human, phosphoserine 214, phosphothreonine 217 (tau 2N4R numbering); SCBiot and dPEG4 at the N-terminus; amide at the C-terminus). In words: SPR ProteOn, peptide captured, Fab as analyte. The method, then:
as §4, §5, §6

Test [9] concerns the target T3, Peptide-1. In words: SPR ProteOn, peptide captured, Fab as analyte. The method, then: as §4, §5, §6
For test [10], the target named is T4, Peptide-11 (human).
T4 peptide: {Biotin-dPEG4}-SPGTPG[pS]RSR[pT]P[pS]LPTPPT-NH2
Nature of the test: SPR ProteOn, peptide captured, Fab as analyte. The method, then:
as §4, §5, §6

The target in test [11] is T1, Peptide-2. Nature of the test: SPR ProteOn, peptide captured, Fab as analyte. On the procedure: as §4, §5, §6
Test [12] concerns the target Peptide-6 (human, phosphothreonine 217 (tau 2N4R numbering); SCBiot and dPEG4 at the N-terminus; amide at the C-terminus). Nature of the test: SPR ProteOn, peptide captured, Fab as analyte. The method, then:
as §4, §5, §6

T1 sequence (peptide, as listed by the source): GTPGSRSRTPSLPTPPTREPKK

B1: PT3 Fab (B187) (Fab, V domains shown)
VH: EVKLVESGGDLVKPGGSLKLSCAASGFTFSSYAMSWVRQNPEKRLEWVASISKGGNTYYPNSVKGRFTISRDNARNILYLQMSSLRSEDTALYYCARGWGDYGWFAYWGQVTLVTVSA
VL: DIKMTQSPSSMYASLGERVTITCKASQDINRYLNWFQQKPGKSPKTLIYRANRLLDGVPSRFSGSGSGQDYSLTISSLDYEDMGIYYCLQYDEFPLTFGDGTKLELK
notes: Chimeric Fab: mouse variable regions, human IgG1/kappa constant region, 6xHis tag at the C-terminus of the heavy chain; also called mouse parental Fab of PT3
In general, Kd refers to the concentration at which binding is half-saturated. Low values mean higher affinity, high ones lower affinity. As usually defined, the koff is the rate constant with which the complex falls apart. A low value points to slow dissociation. By kon is commonly meant the rate constant with which the complex forms. Higher therefore signals fast association. As to B1, the equilibrium dissociation constant (Kd) in test [1] was 0.0738 to 0.101 nM; in test [3], 6.6 to 10.8 nM; in [4], 6.48 to 6.71 nM; in test [6], 0.09 to 0.45 nM. Also, the koff is 4.93e-05 s⁻¹ and 7.84e-05 s⁻¹ in [2]; 0.000236 s⁻¹ and 0.000324 s⁻¹ in [5]; 9.1e-05 s⁻¹ in test [6]; 0.00584 s⁻¹ in [7]; 0.00547 s⁻¹ in test [8]; 0.00028 s⁻¹ in test [9]. In addition, the figures for the off-rate constant (koff) in test [11] and in [12] were 0.000168 s⁻¹ and 0.00616 s⁻¹, respectively. The kon in test [2] was 491000 M⁻¹ s⁻¹ and 1.06e+06 M⁻¹ s⁻¹; in test [5] it was 870000 M⁻¹ s⁻¹ and 1.67e+06 M⁻¹ s⁻¹; in test [7] it was 704000 M⁻¹ s⁻¹; in test [8], 1.04e+06 M⁻¹ s⁻¹; in [9] it was 1.27e+06 M⁻¹ s⁻¹; in [11] it was 764000 M⁻¹ s⁻¹. The same molecule came in with an on-rate (kon) in test [12] of 541000 M⁻¹ s⁻¹. In test [10], the binding result is given as “no binding (tested: 1.1-90 nM)”.

For the origin of these results see patent US20230047413A1 (Janssen / Centocor, published 2023).
